Test results from patent US20210388068A1.

What was measured:
[1] = molecular target: MBP-CfaE-N Arg145Ala mutant (enterotoxigenic Escherichia coli (ETEC)) (UniProt P25734); test: ELISA on plate-bound MBP-CfaE-N Arg145Ala mutant, OD405
[2] = molecular target: MBP-CfaE-N Arg67Ala mutant (enterotoxigenic Escherichia coli (ETEC)) (UniProt P25734); test: ELISA on plate-bound MBP-CfaE-N Arg67Ala mutant, OD405
[3] = molecular target: MBP-CfaE-N Asn127Ala mutant (enterotoxigenic Escherichia coli (ETEC)) (UniProt P25734); test: ELISA on plate-bound MBP-CfaE-N Asn127Ala mutant, OD405
[4] = molecular target: MBP-CfaE-N Thr91Ala mutant (enterotoxigenic Escherichia coli (ETEC)) (UniProt P25734); test: ELISA on plate-bound MBP-CfaE-N Thr91Ala mutant, OD405

B1: anti-CfaE HuMab 68-90 (antibody, human IgG1, V domains shown)
VH: QVQLQQWGAGLLKPSETLSLTCAVYGGSFSAYYWSWIRQPPGKGLEWIGEINHSGNTNYNPSLESRVTISVDTSKNQVSLKQSSVTAADTAVYYCARNWGPNAFDIWGRGTMVTVSS
VL: DIQMTQSPSSVSASVGDRVTITCRASQDITSWLVWYQHKPGKAPKLLIYAASSLQSGVPSRFSGSGSGTDFTLTISSLQPEDFATYYCQQANIFPYTFGQGTKLEIK
How did the EC50 (read off the curve) [1] turn out when B1 was run?
Its EC50 (read off the curve) is 0.03 µg/mL.

What about the EC50 (read off the curve) [2] of the same binder?
The EC50 (read off the curve) was 0.04 µg/mL.

What about the EC50 (read off the curve) [3] of the same binder?
The EC50 (read off the curve) was 0.01 µg/mL.

What about the EC50 (read off the curve) [4] of the same binder?
Its EC50 (read off the curve) is 0.02 µg/mL.

B2: anti-CfaE HuMab 68-48 (antibody, human IgG1, V domains shown)
VH: QVQLQQWGAGLLKPSETLSLTCAVYGGSFSGYSWSWIRQSPGKGLEWIGEIYHSGSTNYNPSLKSRVTISGDTSKNQFSLKLSSVTAADTAVYYCARENLQGYYYYGMDVWGQGTTVTVSS
VL: AIQLTQSPSSLSASVGDRVTITCRASQGISSSLAWYQQKPGKAPKLLIYDASSLESGVPSRFSGSGSGTDFTLTISSLQPEDFATYYCQQFNSYPRTFGQGTKVEIK
Which EC50 (read off the curve) [1] does the source give for B2 here?
Its EC50 (read off the curve) is 0.03 µg/mL.

What about the EC50 (read off the curve) [2] of the same binder?
Its EC50 (read off the curve) is 0.04 µg/mL.

B3: anti-CfaE HuMab 68-61 (antibody, human IgG1, V domains shown)
VH: QVQLVQSGAEVKNPGSSVRVSCEASGGTFSSFAISWVRQAPGQGLEWMGRIIPILDIVKYAQRFQGRVTISADKSTSTAYMELSSLRSEGTAVYYCARDDIAGSDFDIWGQGTMVTVSS
VL: DIQMTQSPSSLSASVGDRVTITCRASQGISSWLAWYQQKPEKAPKSLIYAASSLQSGVPSRFSGSGSGTDFTLTISSLQPEDFATYYCQQYTSYPYTFGQGTKLEIK
With B3 as the binder, how does the EC50 (read off the curve) [1] read?
The EC50 (read off the curve) was 0.03 µg/mL.

What about the EC50 (read off the curve) [2] of the same binder?
The EC50 (read off the curve) was 0.04 µg/mL.
